Laboratory results from patent US20200016512A1, “AFFINITY […] FOR PURIFYING IMMUNOGLOBULIN” (KANEKA CORPORATION, priority 2017, published 2020).

Tested on: Fab
Assay: Residual binding activity to Fab after alkali treatment (alkali resistance)
Assay type: physicochemical, human
Details: 0.2 mL peptide solution + 0.1 mL 45 mM sodium hydroxide, 25° C., 2 hours; compared with SpG mutant SEQ ID NO: 20
Experimental: Each peptide was subjected to dialysis using ultrapure water and the concentration thereof was adjusted to obtain 4 μM aqueous solution. To 0.2 mL of the aqueous solution, 0.1 mL corresponding to a half amount of the aqueous solution of 45 mM sodium hydroxide aqueous was added. The mixture was incubated at 25° C. for 2 hours and then neutralized by 0.1 mL of 50 mM acetic acid (pH 3.0). After it was confirmed that the mixture was neutralized by using a pH test paper, the mixture was diluted to 20 times by the standard buffer so that the concentration was adjusted to 100 nM.
The peptide solution prepared as the above was defined as a sample before alkali treatment at 0 hr, and 0.1 mL of the above sodium hydroxide aqueous solution and 0.1 mL of 50 mM acetic acid (pH 3.0) were preliminarily mixed and the mixture was added to the sample. The final concentration of the peptide in the solution was 100 nM.
A binding to an immunoglobulin by a similar method to Example 2(2) using Octet and the peptide solutions before and after the alkali treatment prepared in the above (1) was measured. An Fc was used instead of IgG in this experiment in order to simplify a binding pattern. […]
A residual binding activity to a Fab of the Fab-binding activity-enhanced peptides of SEQ ID NOs: 11 and 13 after the alkali resistance was also evaluated. […]

Row | Substance | Alkali resistance: residual binding activity to a Fab after the alkali treatment (FIG. 3B)
1 | SEQ ID NO: 11: Fab-binding activity-enhanced immunoglobulin-binding peptide, partly mutated sequence of SEQ ID NOs: 2 to 7 (TTYKLIVKGNTLTGYTTTIAVDAETAEKALKQFANENGVYGEWSYDDATKTFTVTE; novel peptide) | similarly improved
2 | SEQ ID NO: 13: Fab-binding activity-enhanced immunoglobulin-binding peptide, partly mutated sequence of SEQ ID NOs: 2 to 7 (TTYRLVIKGVTLTGYTATIAVDAATAEQTLRQFANDNGITGEWAYDTATKTFTVTE; novel peptide) | similarly improved
